Source: paper PMC11066147 (Heliyon, 2024)
Where “and” joins values, the source holds several entries; their conditions need not be identical. Equal entries are not always repeated. Where two headings read alike, the source gives them in different places.

B1: Plasmodium falciparum Hsp110 (PfHsp70-z, PF3D7_0708800) (natural protein)
chain: MSVLGIDIGNDNSVVATINKGAINVVRNDISERLTPTLVGFTEKERLIGDSALSKLKSNYKNTCRNIKNLIGKIGTDVKDDIEIHEAYGDLIPCEYNYLGYEVEYKNEKVVFSAVRVLSALLSHLIKMAEKYIGKECKEIVLSYPPTFTNCQKECLLAATKIINANVLRIISDNTAVALDYGMYRMKEFKEDNGSLLVFVNIGYANTCVCVARFFSNKCEILCDIADSNLGGRNLDNELIKYITNIFVNNYKMNPLYKNNTPELCPMGTGRLNKFLVTSTASDQQNGINNKVRIKLQEVAIKTKKVLSANNEASIHVECLYEDLDCQGSINRETFEELCSNFFLTKLKHLLDTALCISKVNIQDIHSIEVLGGSTRVPFIQNFLQQYFQKPLSKTLIADESIARGCVLSAAMVSKHYKVKEYECVEKVTHPINVEWHNINDASKSNVEKLYTRDSLKKKVKKIVIPEKGHIKLTAYYENTPDLPSNCIKELGSCIVKINEKNDKIVESHVMTTFSNYDTFTFLGAQTVTKSVIKSKDEKKKADDKTEDKGEKKDAKDQEQNDDKDQTNDNNMNEKDTNDKKEKNNETNSPNKTELKKGEEGKVQTCYTTIPIETLLAQGSYSSKDIFNFSEQEINMQHSDILEGERLKHLNELETIIYESRSRLNGIYKNFVMDDERDRILLSLDDYENWLYDNIEENKNMFIKKKEEIRDLIKNIVQKFDVYNSKQQNLGNIINHLNNIITQCSNKPSDESQNIINRTTKFLNNINSLQEQEKNKPLYEPPVYTLNDIEAEFNEVTQLAQKFFSKLEVEELAKQKAKQEKEKEKEKEKEKEKEKEKNEETNLDANEEQNNEAKNNEEKENSTKNENSANPEE
B2: Plasmodium falciparum heat shock protein 70-1 (PfHsp70-1) (natural protein)
chain: not shown

Key:
Assay in all cases: SPR
[1] = target: B1
E. coli Hsp70 (DnaK) [2] = target: T1, E. coli Hsp70 (DnaK) (E. coli, UniProt P0A6Y8 1-638)
[3] = target: B2
[4] = target: B1; remark: listed apart in the source
E. coli Hsp70 (DnaK) [5] = target: T1, E. coli Hsp70 (DnaK); remark: listed apart in the source
[6] = target: B2; remark: listed apart in the source
SPR = target: the molecule itself
[7] = target: B1; remark: listed apart in the source

Binder	Kd [1] [nM]	Kd (E. coli Hsp70 (DnaK) [2]) [nM]	Kd [3] [nM]	Kd [4] [nM]	Kd (E. coli Hsp70 (DnaK) [5]) [nM]	Kd [6] [nM]	koff (SPR)	binding result [7]
NRLLTG	145 ± 0.03	12.3 ± 0.03	97.4 ± 0.04	128 ± 0.08	2530 ± 30	181 ± 0.01	–	–
ALLLMYRR	43.1 ± 0.01	82 ± 0.02	61.8 ± 0.08	97.1 ± 0.09	4450 ± 50	140 ± 0.4	–	–
ANNNMYRR	9.37 ± 0.07	440 ± 4	4.02 ± 0.02	8.31 ± 0.01	8960 ± 60	45.4 ± 0.07	–	–
NRNNTG	24.1 ± 0.01	24.9 ± 0.09	10.2 ± 0.02	52.5 ± 0.05	7310 ± 10	296 ± 0.07	–	–
B1	–	–	–	–	–	–	5.27e-05 s⁻¹ and 7.73e-05 s⁻¹ and 3.37e-05 s⁻¹	–
B2	–	–	–	–	–	–	–	binds
